Source: patent US20080176793A1, “UPREGULATING ACTIVITY OR EXPRESSION OF BDNF TO MITIGATE COGNITIVE IMPAIRMENT IN ASYMPTOMATIC HUNTINGTON'S SUBJECTS” (THE REGENTS OF THE UNIVERSITY OF CALIFORNIA, priority 2006, published 2008)

Tests used:
Assay type in all cases: cell-based
[1] = test system: hippocampal slices from Hdh^Q111 mice; experiment: In situ rhodamine-phalloidin labeling of F-actin (TBS-induced actin polymerization in dendritic spines); details: BDNF 2 nM, Hdh^Q111 slices after TBS, n=13, mean ±s.d.
Protocol: Physiological recording and delivery of TBS or low frequency stimulation was performed as described above. Starting 20 min after TBS, rhodamine-phalloidin (6 μM/2-4 μl; from Sigma, St. Louis, Mo., or Invitrogen, Carlsbad, Calif.) was applied topically (Kramar et al. (2006) Proc. Natl. Acad. Sci., USA, 103: 5579-5784) via micropipette 3 times separated by 3 min. To test the effects of BDNF on actin polymerization, BDNF (2 nM) or artificial cerebral spinal fluid was delivered to WT and Hdh^Q111 slices via a reperfusion pump system (Cole-Palmer, Vernon Hills, Ill.) at 1 ml/min 1-2 h before recording. […]
Sections were examined with epifluorescence illumination using an Olympus AX70 photomicroscope. Quantitative analyses were carried out on three serial sections situated 20 to 80 μm below the surface of original slice. […] These images were then converted to grayscale and intensity levels were cropped at values determined for each experiment to visualize low-intensity labeling.
Labeled spine-like structures were measured and counted from a 550 μm^2 sampling zone in the proximal stratum radiatum between the two stimulating electrodes using in-house software described in detail previously (Kramar et al. (2006) Proc. Natl. Acad. Sci., USA, 103: 5579-5784; Lin et al. (2005) J. Neurosci. 25: 2062-2069). […]

[2] = test system: hippocampal slices from Hdh^Q111 mice; experiment: Within-train facilitation of theta burst responses in hippocampal slices; details: BDNF-treated Hdh^Q111 slices
From the text: Events that occur during the two-second period of TBS can potently influence the threshold, initial expression, magnitude, and stability of LTP (Arai and Lynch (1992) Eur. J. Neurosci. 4: 411-419; Larson et al. (1986) Brain Res. 368: 347-350). […] In marked contrast, the facilitation of the second and subsequent burst responses, each a composite of four closely spaced fEPSPs, was greatly attenuated in Hdh^Q111 slices (FIG. 2, panel a, e.g. burst 4). The facilitation effect was quantified by expressing the areas of burst responses 2-10 as fractions of the area of the first burst response.
(§1) Acute hippocampal slices were prepared, as described elsewhere (Kramar et al. (2004) J. Neurosci. 24: 5151-5161), from 8 week old Hdh^Q111, 24 week old Hdh^Q92 and age-matched WT mice and maintained at 32° C. in an interface chamber of local design. Synaptic responses (fEPSPs) were generated by stimulating the Schaffer-commissural afferents to the apical dendrites of field CA1b pyramidal cells using stimulating electrodes positioned in fields CA1a and CA1c. For baseline recording, fEPSPs were set to 30% of the maximum responses and low frequency stimulation (3 pulses/min) was delivered. The slope of the descending phase of the fEPSP was used as a measure of response size with all values normalized to a 15 min baseline period collected 1-2 h after slice preparation. LTP was induced with a single TBS train (ten bursts of 4 pulses at 100 Hz, inter-burst interval of 200 ms). BDNF (2 nM) was prepared and delivered to slices as described previously (Menalled (2005) NeuroRx 2: 465-470).
(§2) For all electrophysiology experiments, results are summarized in the text as a percent increase in responses from baseline. Data are presented as mean ±s.d. in the text and mean ±s.e.m. in the figures.

[3] = test system: hippocampal slices from Hdh^Q111 mice; experiment: TBS-induced long-term potentiation (fEPSP slope) in acute hippocampal slices, field CA1
Protocol: as §1, §2

B1: BDNF: the neurotrophin, Brain-Derived Neurotrophic Factor, delivered at 2 nM to hippocampal slices (protein, UniProt P23560 19-247, looked up)
Neurotrophic factor BDNF …: APMKEANIRGQGGLAYPGVRTHGTLESVNGPKAGSRGLTSLADTFEHVIEELLDEDQKVRPNEENNKDADLYTSRVMLSSQVPLEPPLLFLLEEYKNYLDAANMSMRVRRHSDPARRGELSVCDSISEWVTAADKKTAVDMSGGTVTVLEKVPVSKGQLKQYFYETKCNPMGYTKEGCRGIDKRHWNSQCRTTQSYVRALTMDSKKRIGWRFIRIDTSCVCTLTIKRGR
number of phalloidin-labeled spines in the high-intensity bins [1]: 40.5±39.3 per 550 μm^2 | effect on responses to stimulation bursts in the theta train [2]: did not facilitate responses to any stimulation burst | burst 9 greater than burst 1 ([2]; mean ±s.d.): −5.8±9.3% | Facilitation of the second burst response ([2]; relative to burst 1, mean ±s.d.): 46.1±10.2% | effect on baseline transmission ([3]; BDNF 2 nM infused for 60 min, Hdh^Q111 or WT slices): did not detectably change baseline transmission | LTP compared with WT slices ([3]; BDNF 2 nM, Hdh^Q111 slices (FIG. 7, panel a)): not detectably different from WTs | percent potentiation 45 min after TBS ([3]; BDNF 2 nM, Hdh^Q111 slices, mean ±s.d.): 43.6±23.5% | LTP at 20 min post-TBS (percent increase in responses from baseline) ([3]; BDNF 2 nM, Hdh^Q111 slices, n=11, mean ±s.d.): 59.9±28.3% | potentiation at end of 60 min post-TBS recording ([3]; BDNF 2 nM, subgroup of Hdh^Q111 slices, n=4): stable potentiation was present at the end of recording
